From publication PMC10506224, “Isolation and characterization of glutathione S-transferase genes and their transcripts in Saccharina japonica (Laminariales, Phaeophyceae) during development and under abiotic stress” (BMC Plant Biology, 2023) come the findings set out here.

Substrate in this data set: O=[N+]([O-])c1ccc(Cl)c([N+](=O)[O-])c1
Description: purified protein. The format is biochemical, Saccharina japonica. To be noted: GSH co-substrate (30 μL of 60 mM in 900 μL).

Setting [1] is: 0.1 M potassium phosphate pH 7.0, 20 °C.
The mark [2] stands for this setting: 0.1 M potassium phosphate pH 8.0, 20 °C.

B1: SjGST20 (Saccharina japonica) (protein)
chain: MVPVFNYFGVPARGEATRVALAVAGVEFVDKIIPYAELHASGFRAVPVYQLDGTNYTQSTALLRYAGKLGGTYPEDPLEALKVDEIVMMVEDVFINIFADMKEKDEAKKLATHQALIAGKVKYLIEDIASKLEANTASPFCVGPSLTIADIMVHAMIATFQAGFLVGVPTTTAEDICPSLKGLDDAVMEHPKVKAYYASKA
As to B1, under setting [1], the Km – broadly, the substrate concentration at which the rate is half of its maximum – is 2706 µM; the kcat (in general, the number of substrate molecules converted per active site and unit of time at saturation) was found to be 9.83 s⁻¹; the kcat/Km (in general, the second-order rate constant that governs catalysis at low substrate concentration) was found to be 3630 M⁻¹ s⁻¹.

B2: SjGST22 (Saccharina japonica) (protein)
chain: MAPKLVLTYFDIAGAAEAVRWALEQSGLEWEDKRLTRDEFGALKPSLPNGQVPILEVDGFVLAQSQAILRYVGKLGGLYPSDDLEAAKCDSVLDCATDFGINIRPSFMEKDQAKKMEMREDLAANFIPKWLASMEKQLASTGGIYFGEKMTVADIMIALRVKGLKGGVLDGVPTTIADSYPNLIALHDSIVGEPKIAAFIAKHAK
Consider B2, for which, under setting [2], the Km is 674 µM, the kcat amounted to 0.478 s⁻¹ and the kcat/Km came out at 709 M⁻¹ s⁻¹.
